From patent publication US20230192902A1 (KENJOCKETY BIOTECHNOLOGY, published 2023)

Target: T1, human ABCG2 (human, UniProt Q9UNQ0 1-655)
T1 construct: also called CD388; BCRP
T1 sequence: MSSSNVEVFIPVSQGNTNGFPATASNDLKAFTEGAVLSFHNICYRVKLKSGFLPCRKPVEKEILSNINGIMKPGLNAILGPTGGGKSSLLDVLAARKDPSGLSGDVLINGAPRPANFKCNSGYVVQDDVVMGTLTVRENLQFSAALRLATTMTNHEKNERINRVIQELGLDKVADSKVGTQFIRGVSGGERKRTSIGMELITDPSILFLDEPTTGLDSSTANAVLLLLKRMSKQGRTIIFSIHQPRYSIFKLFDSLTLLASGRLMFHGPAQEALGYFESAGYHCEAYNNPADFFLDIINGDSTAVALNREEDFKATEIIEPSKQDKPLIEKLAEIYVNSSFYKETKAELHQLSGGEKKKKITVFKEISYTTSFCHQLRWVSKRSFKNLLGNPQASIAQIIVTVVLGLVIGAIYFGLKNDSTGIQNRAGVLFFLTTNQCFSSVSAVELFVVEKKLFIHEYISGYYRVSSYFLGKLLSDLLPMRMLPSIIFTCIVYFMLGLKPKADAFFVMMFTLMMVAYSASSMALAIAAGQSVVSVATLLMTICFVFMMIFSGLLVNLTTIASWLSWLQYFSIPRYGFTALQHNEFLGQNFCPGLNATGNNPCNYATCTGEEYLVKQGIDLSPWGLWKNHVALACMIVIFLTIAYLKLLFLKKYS
Experiment: flow cytometry on 293T cells stably expressing human ABCG2

B1: anti-ABCG2 antibody 5D3 (antibody, V domains shown)
VH: QVQLQESGPGLVKPSQSLSLTCTVTGFSITSDYAWNWIRQFPGKKLEWMGYINFDGGTTYNPSLRGRISITRDTSKNQFFLQLRSVTPEDTATYYCATFYGAKGTLDYWGQGTSVTVSS
VL: DIVLTQSPSSFSVSLGDRVTISCKASGYILNRLAWYQQKPGNAPRLLISGATSLETGFPSRFSGTGSGKDYTLSISSLQTEDVGTYYCQQYWSTPWTFGGGTKLEIR
**Q.** Does B1 bind?
**A.** binds
